Test results from patent US10766960 (dated 2020).
Where two headings read alike, the source gives them in different places.

T1: FcgRIIa H (human, UniProt P12318)
T1 chain: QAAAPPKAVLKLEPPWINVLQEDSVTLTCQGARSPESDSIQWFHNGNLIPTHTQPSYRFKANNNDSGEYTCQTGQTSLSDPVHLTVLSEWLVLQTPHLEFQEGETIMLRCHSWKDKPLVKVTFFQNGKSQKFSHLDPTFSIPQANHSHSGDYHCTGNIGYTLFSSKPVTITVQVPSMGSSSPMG

T2: FcgRIIa R (human, UniProt P12318)
T2 chain: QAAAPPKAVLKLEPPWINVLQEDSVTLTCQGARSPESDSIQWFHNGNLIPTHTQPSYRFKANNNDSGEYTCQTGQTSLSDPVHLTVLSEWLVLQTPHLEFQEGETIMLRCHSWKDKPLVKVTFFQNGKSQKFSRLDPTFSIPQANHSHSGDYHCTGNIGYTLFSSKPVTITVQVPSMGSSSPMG

T3: FcgRIIb (human, UniProt P31994)
T3 chain: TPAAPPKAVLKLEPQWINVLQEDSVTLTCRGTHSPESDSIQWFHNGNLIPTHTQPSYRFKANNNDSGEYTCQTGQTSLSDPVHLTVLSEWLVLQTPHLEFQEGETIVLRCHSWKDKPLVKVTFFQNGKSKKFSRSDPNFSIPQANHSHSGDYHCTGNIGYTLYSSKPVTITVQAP

T4: FcgRIa (human, UniProt P12314)
T4 chain: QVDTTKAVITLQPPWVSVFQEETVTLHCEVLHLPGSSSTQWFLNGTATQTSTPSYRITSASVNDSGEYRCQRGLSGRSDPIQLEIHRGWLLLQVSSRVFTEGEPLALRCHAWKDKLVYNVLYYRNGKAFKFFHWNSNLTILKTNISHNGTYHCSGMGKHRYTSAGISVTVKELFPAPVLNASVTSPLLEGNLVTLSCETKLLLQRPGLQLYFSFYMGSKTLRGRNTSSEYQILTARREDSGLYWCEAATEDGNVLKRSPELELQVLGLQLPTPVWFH


How the values were obtained:
Assay in all cases: SPR
FcgRIIa H [1] = target: T1, FcgRIIa H
FcgRIIa R [2] = target: T2, FcgRIIa R
FcgRIIb [3] = target: T3, FcgRIIb
FcgRIa [4] = target: T4, FcgRIa
FcgRIIIa V [5] = target: T5, FcgRIIIa V (human, UniProt P08637)
T5 sequence (P08637 17-208 F176V): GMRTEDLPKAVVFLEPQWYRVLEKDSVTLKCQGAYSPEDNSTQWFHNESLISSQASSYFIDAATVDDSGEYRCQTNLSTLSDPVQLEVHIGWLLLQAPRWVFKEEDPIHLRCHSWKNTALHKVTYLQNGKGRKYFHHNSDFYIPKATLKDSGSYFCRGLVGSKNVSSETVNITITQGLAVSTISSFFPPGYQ

FcgRIIIa F [6] = target: T6, FcgRIIIa F (human, UniProt P08637)
T6 sequence (P08637 17-208): as the sequence (P08637 17-208 F176V) above, with V160F counted along it

FcgRIIa H [7] = target: T1, FcgRIIa H
FcgRIIa R [8] = target: T2, FcgRIIa R
FcgRIa [9] = target: T4, FcgRIa
FcgRIIIa V [10] = target: T5, FcgRIIIa V; remark: listed apart in the source
FcgRIIb [11] = target: T3, FcgRIIb
FcgRIIIa F [12] = target: T6, FcgRIIIa F; remark: listed apart in the source

Binder | Kd (FcgRIIa H [1]) [nM] | Kd (FcgRIIa R [2]) [nM] | Kd (FcgRIIb [3]) [nM] | Kd (FcgRIa [4]) [nM] | Kd (FcgRIIIa V [5]) [nM] | Kd (FcgRIIIa F [6]) [nM] | Kd (FcgRIIa H [7]) [nM] | Kd (FcgRIIa R [8]) [nM] | Kd (FcgRIa [9]) [nM] | Kd (FcgRIIIa V [10]) [nM] | Kd (FcgRIIb [11]) [nM] | Kd (FcgRIIIa F [12]) [nM]
H240-Kn227/H240-Hl210/L73-k0 (antibody) chain 1: QDQLVQSGAEVKKPGASVKVSCKASGFNIKDTYIQWVRQAPGQGLEWMGRIDPLRKQTKYREKFEGRVTITADTSTNTAYMELSSLRSEDTAVYYCVRSGREFDYWGQGTLVTVSSASTKGPSVFPLAPSSKSTSGGTAALGCLVKDYFPEPVTVSWNSGALTSGVHTFPAVLQSSGLYSLSSVVTVPSSSLGTQTYICNVNHKPSNTKVDKKVEPKSCDKTHTCPPCPAPEEQWGPIVFLFPPKPKDTLMISRTPEVTCVVVDVSDEEPEVKFNWYVDGVEVHNAKTKPREEQYNATYRVVSVLTVLHQDWLNGKEYKCKVSNKALPAPIEKTISKAKGQPREPQVCTLPPSRDELTKNQVSLWCLVKGFYPSDIAVEWESNGQPENNYKTTPPVLDSDGSFFLYSKLTVDKSRWQQGNVFSCSVMHEALHNHYTQKSLSLSP chain 2: QDQLVQSGAEVKKPGASVKVSCKASGFNIKDTYIQWVRQAPGQGLEWMGRIDPLRKQTKYREKFEGRVTITADTSTNTAYMELSSLRSEDTAVYYCVRSGREFDYWGQGTLVTVSSASTKGPSVFPLAPSSKSTSGGTAALGCLVKDYFPEPVTVSWNSGALTSGVHTFPAVLQSSGLYSLSSVVTVPSSSLGTQTYICNVNHKPSNTKVDKKVEPKSCDKTHTCPPCPAPELLGGPSVFLFPPKPKDTLMISRTPEVTCVVVDVSHEEPEVKFNWYVDGVEVHNAKTKPREEQYNSTYRVVSVLTVLHQDWLNGKEYKCKVSNDALPAPIEETISKAKGQPREPQVYTLPPSRCELTKNQVSLSCAVKGFYPSDIAVEWESNGQPENNYKTTPPVLDSDGSFFLVSKLTVDKSRWQQGNVFSCSVMHEALHNHYTQKSLSLSP chain 3: DIQMTQSPSSLSASVGDRVTITCRASQDIHKYIAWYQQKPGQAPRLLIQYTSTLQPGVPSRFSGSGSGTDYTFTISSLQPEDIATYYCLQYEQLRTFGGGTKVEIKRTVAAPSVFIFPPSDEQLKSGTASVVCLLNNFYPREAKVQWKVDNALQSGNSQESVTEQDSKDSTYSLSSTLTLSKADYEKHKVYACEVTHQGLSSPVTKSFNRGEC | – | – | – | – | – | – | 230 | 260 | 0.17 | 0.91 | 2500 | 4.4
H240-Kn138/H240-Hl147/L73-k0 (antibody) chain 1: QDQLVQSGAEVKKPGASVKVSCKASGFNIKDTYIQWVRQAPGQGLEWMGRIDPLRKQTKYREKFEGRVTITADTSTNTAYMELSSLRSEDTAVYYCVRSGREFDYWGQGTLVTVSSASTKGPSVFPLAPSSKSTSGGTAALGCLVKDYFPEPVTVSWNSGALTSGVHTFPAVLQSSGLYSLSSVVTVPSSSLGTQTYICNVNHKPSNTKVDKKVEPKSCDKTHTCPPCPAPEYYWGPMVFLFPPKPKDTLMISRTPEVTCVVVDVSDEDPEVKFNWYVDGVEVHNAKTKPREEQYNATYRVVSVLTVLHQDWLNGKEYKCKVSNKDWPAPIEKTISKAKGQPREPQVCTLPPSRDELTKNQVSLWCLVKGFYPSDIAVEWESNGQPENNYKTTPPVLDSDGSFFLYSKLTVDKSRWQQGNVFSCSVMHEALHNHYTQKSLSLSP chain 2: QDQLVQSGAEVKKPGASVKVSCKASGFNIKDTYIQWVRQAPGQGLEWMGRIDPLRKQTKYREKFEGRVTITADTSTNTAYMELSSLRSEDTAVYYCVRSGREFDYWGQGTLVTVSSASTKGPSVFPLAPSSKSTSGGTAALGCLVKDYFPEPVTVSWNSGALTSGVHTFPAVLQSSGLYSLSSVVTVPSSSLGTQTYICNVNHKPSNTKVDKKVEPKSCDKTHTCPPCPAPELLGGPSVFLFPPKPKDTLMISRTPEVTCVVVDVSHEEPEVKFNWYVDGVEVHNAKTKPREEQYNSTYRVVSVLTVLHQDWLNGKEYKCKVSNDAWPKPIEETISKAKGQPREPQVYTLPPSRCELTKNQVSLSCAVKGFYPSDIAVEWESNGQPENNYKTTPPVLDSDGSFFLVSKLTVDKSRWQQGNVFSCSVMHEALHNHYTQKSLSLSP chain 3: DIQMTQSPSSLSASVGDRVTITCRASQDIHKYIAWYQQKPGQAPRLLIQYTSTLQPGVPSRFSGSGSGTDYTFTISSLQPEDIATYYCLQYEQLRTFGGGTKVEIKRTVAAPSVFIFPPSDEQLKSGTASVVCLLNNFYPREAKVQWKVDNALQSGNSQESVTEQDSKDSTYSLSSTLTLSKADYEKHKVYACEVTHQGLSSPVTKSFNRGEC | 130 | 11 | 110 | 0.31 | 16 | 22 | – | – | – | – | – | –

Continued by falling Kd (FcgRIIa H [1]), values first:

Kd (FcgRIIa H [1]) [nM] | Kd (FcgRIIa R [2]) [nM] | Kd (FcgRIIb [3]) [nM] | Kd (FcgRIa [4]) [nM] | Kd (FcgRIIIa V [5]) [nM] | Kd (FcgRIIIa F [6]) [nM] | Kd (FcgRIIa H [7]) [nM] | Kd (FcgRIIa R [8]) [nM] | Kd (FcgRIa [9]) [nM] | Kd (FcgRIIIa V [10]) [nM] | Kd (FcgRIIb [11]) [nM] | Kd (FcgRIIIa F [12]) [nM] | Binder
57 | 40 | 280 | 0.12 | 0.4 | 1.8 | – | – | – | – | – | – | H240-Kn173/H240-Hl068/L73-k0 (antibody) chain 1: QDQLVQSGAEVKKPGASVKVSCKASGFNIKDTYIQWVRQAPGQGLEWMGRIDPLRKQTKYREKFEGRVTITADTSTNTAYMELSSLRSEDTAVYYCVRSGREFDYWGQGTLVTVSSASTKGPSVFPLAPSSKSTSGGTAALGCLVKDYFPEPVTVSWNSGALTSGVHTFPAVLQSSGLYSLSSVVTVPSSSLGTQTYICNVNHKPSNTKVDKKVEPKSCDKTHTCPPCPAPEYYWGPMVFLFPPKPKDTLMISRTPEVTCVVVDVSDEDPEVKFNWYVDGVEVHNAKTKPREEQYNATYRVVSVLTVLHQDWLNGKEYKCKVSNKDLPAPQEKTISKAKGQPREPQVCTLPPSRDELTKNQVSLWCLVKGFYPSDIAVEWESNGQPENNYKTTPPVLDSDGSFFLYSKLTVDKSRWQQGNVFSCSVMHEALHNHYTQKSLSLSP chain 2: QDQLVQSGAEVKKPGASVKVSCKASGFNIKDTYIQWVRQAPGQGLEWMGRIDPLRKQTKYREKFEGRVTITADTSTNTAYMELSSLRSEDTAVYYCVRSGREFDYWGQGTLVTVSSASTKGPSVFPLAPSSKSTSGGTAALGCLVKDYFPEPVTVSWNSGALTSGVHTFPAVLQSSGLYSLSSVVTVPSSSLGTQTYICNVNHKPSNTKVDKKVEPKSCDKTHTCPPCPAPELLGGPSVFLFPPKPKDTLMISRTPEVTCVVVDVSHEEPEVKFNWYVDGVEVHNAKTKPREEQYNSTYRVVSVLTVLHQDWLNGKEYKCKVSNDALPKPIEETISKAKGQPREPQVYTLPPSRCELTKNQVSLSCAVKGFYPSDIAVEWESNGQPENNYKTTPPVLDSDGSFFLVSKLTVDKSRWQQGNVFSCSVMHEALHNHYTQKSLSLSP chain 3: DIQMTQSPSSLSASVGDRVTITCRASQDIHKYIAWYQQKPGQAPRLLIQYTSTLQPGVPSRFSGSGSGTDYTFTISSLQPEDIATYYCLQYEQLRTFGGGTKVEIKRTVAAPSVFIFPPSDEQLKSGTASVVCLLNNFYPREAKVQWKVDNALQSGNSQESVTEQDSKDSTYSLSSTLTLSKADYEKHKVYACEVTHQGLSSPVTKSFNRGEC
22 | 31 | 200 | 0.066 | 1 | 4.2 | – | – | – | – | – | – | H240-Kn166/H240-Hl170/L73-k0 (antibody) chain 1: QDQLVQSGAEVKKPGASVKVSCKASGFNIKDTYIQWVRQAPGQGLEWMGRIDPLRKQTKYREKFEGRVTITADTSTNTAYMELSSLRSEDTAVYYCVRSGREFDYWGQGTLVTVSSASTKGPSVFPLAPSSKSTSGGTAALGCLVKDYFPEPVTVSWNSGALTSGVHTFPAVLQSSGLYSLSSVVTVPSSSLGTQTYICNVNHKPSNTKVDKKVEPKSCDKTHTCPPCPAPEYYWGPMVFLFPPKPKDTLMISRTPEVTCVVVDVSDEDPEVKFNWYVDGVEVHNAKTKPREEQYNATYRVVSVLTVLHQDWLNGKEYKCKVSNKDAPAPIEKTISKAKGQPREPQVCTLPPSRDELTKNQVSLWCLVKGFYPSDIAVEWESNGQPENNYKTTPPVLDSDGSFFLYSKLTVDKSRWQQGNVFSCSVMHEALHNHYTQKSLSLSP chain 2: QDQLVQSGAEVKKPGASVKVSCKASGFNIKDTYIQWVRQAPGQGLEWMGRIDPLRKQTKYREKFEGRVTITADTSTNTAYMELSSLRSEDTAVYYCVRSGREFDYWGQGTLVTVSSASTKGPSVFPLAPSSKSTSGGTAALGCLVKDYFPEPVTVSWNSGALTSGVHTFPAVLQSSGLYSLSSVVTVPSSSLGTQTYICNVNHKPSNTKVDKKVEPKSCDKTHTCPPCPAPELLGGPSVFLFPPKPKDTLMISRTPEVTCVVVDVSHEEPEVKFNWYVDGVEVHNAKTKPREEQYNSTYRVVSVLTVLHQDWLNGKEYKCKVSNDAAPKPIEETISKAKGQPREPQVYTLPPSRCELTKNQVSLSCAVKGFYPSDIAVEWESNGQPENNYKTTPPVLDSDGSFFLVSKLTVDKSRWQQGNVFSCSVMHEALHNHYTQKSLSLSP chain 3: DIQMTQSPSSLSASVGDRVTITCRASQDIHKYIAWYQQKPGQAPRLLIQYTSTLQPGVPSRFSGSGSGTDYTFTISSLQPEDIATYYCLQYEQLRTFGGGTKVEIKRTVAAPSVFIFPPSDEQLKSGTASVVCLLNNFYPREAKVQWKVDNALQSGNSQESVTEQDSKDSTYSLSSTLTLSKADYEKHKVYACEVTHQGLSSPVTKSFNRGEC
